Test results published in patent US20150203577A1 (Chugai, published 2015).
Numbering of substitutions follows the chain as printed.

B1: H237-MB871/MRAL-k0 (antibody, mouse IgG1, kappa)
heavy: QVQLQESGPGLVKPSETLSLTCAVSGHSISHDHAWSWVRQPPGEGLEWIGFISYSGITNYNPSLQGRVTISRDNSKNTLYLQMNSLRAEDTAVYYCARSLARTTAMDYWGEGTLVTVSSAKTTPPSVYPLAPGSAAQTNSMVTLGCLVKGYFPEPVTVTWNSGSLSSGVHTFPAVLQSDLYTLSSSVTVPSSTWPSETVTCNVAHPASSTKVDKKIVPRDCGCKPCICEPNEVEIVFIFPPKPKDVLTITLTPKVTCVVVDISDDDPEVQFSWFVDDVEVHTAQTQPREELFNSTFRSVSELPIMHQDWLNGKEFKCRVNSDGFPAPIEKTISKTKGRPKAPQVYTIPPPKEQMAKDKVSLTCMITDFFPEDITVEWQWNGQPAENYKNTQPIMDTDGSYFVYSKLNVQKSNWEAGNTFTCSVLHEGLHNHHTEKSLSHSPGK
light: not shown
notes: copies: 2 + 2
B2: H237-MB337/MRAL-k0 (antibody, mouse IgG1, kappa)
heavy: B1 heavy with P230A, N231P, I235D, D264K, L291Q, D322A, G323A
light: not shown
notes: copies: 2 + 2
B3: H237-MB875/MRAL-k0 (antibody, mouse IgG1, kappa)
heavy: B1 heavy with N320D
light: not shown
notes: copies: 2 + 2
B4: H237-MB877/MRAL-k0 (antibody, mouse IgG1, kappa)
heavy: B1 heavy with L291Q, N320D, K330R
light: not shown
notes: copies: 2 + 2
B5: H237-MB302/MRAL-k0 (antibody, mouse IgG1, kappa)
heavy: B1 heavy with P230V, N231P, I235D, D264K, L291Q, D322A, G323A
light: not shown
notes: copies: 2 + 2
B6: H237-MB306/MRAL-k0 (antibody, mouse IgG1, kappa)
heavy: B1 heavy with E229T, P230A, N231P, I235D, D264K, L291Q, D322A, G323A
light: not shown
notes: copies: 2 + 2
B7: H237-MB318/MRAL-k0 (antibody, mouse IgG1, kappa)
heavy: B1 heavy with P230V, N231E, I235D, D264K, L291Q, D322A, G323A
light: not shown
notes: copies: 2 + 2
B8: H237-MB322/MRAL-k0 (antibody, mouse IgG1, kappa)
heavy: B1 heavy with P230D, N231E, I235D, D264K, L291Q, D322A, G323A
light: not shown
notes: copies: 2 + 2
B9: H237-MB310/MRAL-k0 (antibody, mouse IgG1, kappa)
heavy: B1 heavy with E229T, P230D, N231P, I235D, D264K, L291Q, D322A, G323A
light: not shown
notes: copies: 2 + 2
B10: H237-MB319/MRAL-k0 (antibody, mouse IgG1, kappa)
heavy: B1 heavy with P230A, N231E, I235D, D264K, L291Q, D322A, G323A
light: not shown
notes: copies: 2 + 2
B11: H237-MB313/MRAL-k0 (antibody, mouse IgG1, kappa)
heavy: B1 heavy with E229T, P230V, N231E, I235D, D264K, L291Q, D322A, G323A
light: not shown
notes: copies: 2 + 2
B12: H237-MB338/MRAL-k0 (antibody, mouse IgG1, kappa)
heavy: B1 heavy with P230D, N231P, I235D, D264K, L291Q, D322A, G323A
light: not shown
notes: copies: 2 + 2
B13: H237-MB876/MRAL-k0 (antibody, mouse IgG1, kappa)
heavy: B1 heavy with E329Y
light: not shown
notes: copies: 2 + 2

Tests used:
[1] = molecular target: T1, mouse FcγRII extracellular domain, C-terminal His tag (mouse, UniProt P08101 30-210); assay: SPR (Biacore T200), antibody captured on Protein L, mFcγR analyte
T1 construct: also called mFcγRII; mFcgRII
T1 sequence: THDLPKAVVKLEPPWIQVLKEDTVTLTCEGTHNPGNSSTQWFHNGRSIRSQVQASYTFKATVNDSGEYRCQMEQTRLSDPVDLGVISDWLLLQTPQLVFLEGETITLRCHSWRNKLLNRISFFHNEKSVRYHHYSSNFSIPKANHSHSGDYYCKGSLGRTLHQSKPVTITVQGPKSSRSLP

[2] = molecular target: T2, mouse FcγRIII extracellular domain, C-terminal His tag (mouse, UniProt P08508 31-215); assay: as above
T2 construct: also called mFcγRIII; mFcgRIII
T2 chain: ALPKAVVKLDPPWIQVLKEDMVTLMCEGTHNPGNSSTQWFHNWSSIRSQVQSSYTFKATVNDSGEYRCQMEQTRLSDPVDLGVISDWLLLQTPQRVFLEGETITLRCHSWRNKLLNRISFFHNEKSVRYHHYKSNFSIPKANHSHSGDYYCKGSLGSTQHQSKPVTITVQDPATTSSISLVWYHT

[3] = molecular target: T3, mouse FcγRII extracellular domain with C-terminal His tag (mouse, UniProt P08101 30-210); assay: SPR Biacore T200
T3 construct: Made on the basis of NCBI NP-034317.1; also called mFcγRII; mFcgRII
T3 sequence: T1 sequence
Description: (§1) Each altered antibody was analyzed for its interaction with each Fcγ receptor prepared above using Biacore T100 (GE Healthcare Japan Corp.), Biacore T200 (GE Healthcare Japan Corp.), Biacore A100, or Biacore 4000. The running buffer used was HBS-EP+ (GE Healthcare Japan Corp.). The assay temperature was set to 25° C. The sensor chips used were chips prepared by immobilizing Protein L (ACTIGEN or BioVision) onto Series S Sensor Chip CM5 (GE Healthcare Japan Corp.) or Series S Sensor Chip CM4 (GE Healthcare Japan Corp.) by the amine coupling method.
(§2) In order to calculate the KD value of each altered antibody for FcγR, kinetic analysis was conducted according to the following method: first, the antibody of interest was captured onto any of these chips and allowed to interact with mFcγR diluted with a running buffer. For the obtained sensorgram, the assay results were globally fit into the 1:1 Langmuir binding model using Biacore Evaluation Software to calculate an association rate constant ka (L/mol/s) and a dissociation rate constant kd (1/s). From these values, the dissociation constant KD (mol/L) was calculated.

[4] = molecular target: T4, mouse FcγRIII extracellular domain with C-terminal His tag (mouse, UniProt P08508 31-215); assay: SPR Biacore T200
T4 construct: Made on the basis of NCBI NP-034318.2; also called mFcγRIII; mFcgRIII
T4 chain: T2 chain
Description: as §1, §2

[5] = molecular target: T3, mouse FcγRII extracellular domain with …; assay: SPR Biacore T200; KD mFcγRIII / KD mFcγRII
Description: as §1, §2

Row | Binder | Kd [1] | relative mFcγRII-binding activity (mIgG1 = 1) [1] | Kd [2] | relative mFcγRIII-binding activity (mIgG1 = 1) [2] | relative mFcγRII-binding activity (mIgG1 = 1) [3] | relative mFcγRIII-binding activity (mIgG1 = 1) [4] | relative I/A (mFcγRII selectivity) (mIgG1 = 1) [5]
1 | B1 | 3.4 nM | 61.8 fold vs H237-mIgG1/MRAL-k0 | 169 nM | 1.7 fold vs H237-mIgG1/MRAL-k0 |  |  | 
2 | B2 |  |  |  |  | 73.4 | 4.6 | 16
3 | B3 | 2.88 nM | 72.8 fold vs H237-mIgG1/MRAL-k0 | 147 nM | 1.9 fold vs H237-mIgG1/MRAL-k0 |  |  | 
4 | B4 | 3.8 nM | 55.3 fold vs H237-mIgG1/MRAL-k0 | 195 nM | 1.4 fold vs H237-mIgG1/MRAL-k0 |  |  | 
5 | B5 |  |  |  |  | 53.7 | 4.5 | 12
6 | B6 |  |  |  |  | 65.8 | 4.2 | 15.7
7 | B7 |  |  |  |  | 40.5 | 3.9 | 10.5
8 | B8 |  |  |  |  | 9.2 | 1.3 | 7.3
9 | B9 |  |  |  |  | 38.8 | 3.8 | 10.1
10 | B10 |  |  |  |  | 50 | 3.6 | 14.1
11 | B11 |  |  |  |  | 40.1 | 4 | 10.1
12 | B12 |  |  |  |  | 42.2 | 2.6 | 16.5
13 | B13 | 3.58 nM | 58.7 fold vs H237-mIgG1/MRAL-k0 | 191 nM | 1.5 fold vs H237-mIgG1/MRAL-k0 |  |  | 
